# Assay results reported in article PMC5542768, “Structural insight into the activation of a class B G-protein-coupled receptor by peptide hormones in live human cells” (eLife, 2017).
# Non-standard residues stand in square brackets, D forms with d. No end group written: not given here. *: point of attachment. Nle = CCCC[C@H](N)C(=O)O; ClAc = O=C(CCl)*
# Tested on: CRF1R
# Test: not given
# Conditions: ref Gulyas et al., 1995; cited from earlier work
row,Substance,Binding affinity of CRF1R relative to CRF (lower)
1,"[DPhe^12,Nle^21,38]-CRF(12-41) [^dFXCRF(12-41)]",~ 10 fold

# Target: T1, CRF1R (Rattus norvegicus, UniProt P35353)
# T1 construct: all our experimental data are obtained from the intact full-length, fully glycosylated receptor at the membrane of the live cell; expressed in transfected cells; host or cells: HEK293 (transient co-transfection with CRE-luciferase reporter and Renilla plasmid)
# T1 sequence (P35353 24-415): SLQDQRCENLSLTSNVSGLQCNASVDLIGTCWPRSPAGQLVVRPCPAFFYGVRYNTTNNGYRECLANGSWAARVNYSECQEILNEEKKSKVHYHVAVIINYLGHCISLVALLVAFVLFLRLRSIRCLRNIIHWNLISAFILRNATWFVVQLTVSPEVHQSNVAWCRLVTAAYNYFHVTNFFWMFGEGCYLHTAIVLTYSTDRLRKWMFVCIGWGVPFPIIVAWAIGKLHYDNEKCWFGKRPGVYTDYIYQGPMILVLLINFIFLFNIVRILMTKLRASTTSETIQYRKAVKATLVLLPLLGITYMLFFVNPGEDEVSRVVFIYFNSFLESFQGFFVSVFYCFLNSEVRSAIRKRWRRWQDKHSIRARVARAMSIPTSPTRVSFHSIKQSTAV
# Test: cAMP accumulation assay via luciferase reporter (ligand alone)
# Assay type: cell-based
# Conditions: 100 nM peptide; normalized to either Ucn1 or CRF; HEK293; mean ± s.e.m., at least three independent experiments, each in triplicate
# Description: Figure 1. Photo-crosslinking mapping of CRF1R to determine footprints of agonists and antagonists. (A) Sequence alignment of CRF1R peptide ligands. The classification into N-terminus, C-terminus and helical connector is adopted from [Beyermann et al. (2000]). […] In ^dFXCRF(12-41), substitutions of the two native Met residues to Nle and the N-terminal D-amino acid to enhance its stability and potency ([Rivier and Rivier, 2014]). […] The assay measures cAMP accumulation in live HEK293 cells stimulated with serial dilutions of each ligand via a luciferase reporter. Plots are representative mean ± s.e.m. of at least three independent experiments, each run in triplicates. (B) CRF1R activation elicited by each of the ligands used in this study. […] (E) Photo-crosslinking experiments. Transiently transfected 293T cells expressing each Azi-CRF1R mutant (residues replaced by Azi are indicated in the upper row) were incubated with each of the five peptide ligands indicated in the right column, followed by UV irradiation (365 nm). […] To obtain sharper bands, samples were deglycosylated by PNGaseF. The subdivision of transmembrane helices and ECLs is based on the crystal structure of the CRF1R TMD ([Hollenstein et al., 2013]). […] DOI: http://dx.doi.org/10.7554/eLife.27711.002 Figure 1—source data 1. Numerical values of cAMP accumulation assay. The assay measures cAMP accumulation in live HEK293 cells stimulated with serial dilutions of each ligand via a luciferase reporter. Raw luminescence data of the firefly reporter luciferase were normalized to the Renilla control and to 100% activation of agonists. At least three independent experiments were performed per ligand, and each experiment was run in triplicate. Values in the table represent a single measurement. Mean ± s.e.m. of triplicates for one representative experiment are reported in Figure 1B–D. DOI: http://dx.doi.org/10.7554/eLife.27711.003 Figure 1—source data 2. Numerical values of whole-cell ELISA of HA-Azi-CRF1R mutants. Related to Figure 1—figure supplement 1. The absorption was measured at 492 nm. Each data point was obtained as mean of three independent experiments, each performed in triplicate. Mean ± s.e.m. of the means of the triplicates are plotted in Figure 1—figure supplement 1B. DOI: http://dx.doi.org/10.7554/eLife.27711.004 Figure 1—figure supplement 1. Expression profiles of a subset of Azi-CRF1R mutants. […] (A) Whole-cell lysates of 293T cells transiently expressing each Azi-CRF1R mutant were resolved on 10% SDS-PAGE and analyzed by Western blotting using an M2 anti-FLAG-HRP antibody. The Azi mutation site is indicated in the top row. […] (B) Whole-cell ELISA of HA-Azi-CRF1R mutants. The absorptions at 492 nm (OD492) are shown as mean ± s.e.m. obtained from three independent experiments each performed in triplicates and normalized to wild type (wt). The positions replaced by Azi are identical to (A). DOI: http://dx.doi.org/10.7554/eLife.27711.005 [drawing 1]
# The day prior to transfection, 6 × 10^6 HEK293 cells were seeded in 10 cm dishes. Cells were co-transfected with 0.5 µg of plasmid encoding the wild-type CRF1R gene under control of a PGK promoter, 5 µg of the reporter construct (humanized PpyRE9 [[Branchini et al., 2010]] firefly luciferase gene driven by a cAMP-responsive element and followed by a PEST sequence), and 0.5 µg of plasmid encoding Renilla luciferase driven by a CMV promoter. Transfection was performed using PEI max as described above. The following day, cells were trypsinized and transferred into a 96-well plate at a density of 180,000 cells per well.
row,Substance,Receptor activation at 100 nM
1,"Ucn1(8-40): 33-mer N-truncated Ucn1 antagonist, introduced in this work for the first time (DLTFHLLRTLLELARTQSQRERAEQNRIIFDSV; ends and bridges not checked; UniProt P55089 90-122, looked up, fragment)",8.20 ± 2.76%
2,"[DPhe^12,Nle^21,38]-CRF(12-41) [^dFXCRF(12-41)]",0.53 ± 0.47%
3,"CRF(9-41): 33-mer antagonist obtained by N-terminal truncation of the first eight residues of CRF (DLTFHLLREVLEMARAEQLAQQAHSNRKLMEII; ends and bridges not checked; UniProt P06850 162-194, looked up, fragment)",4.03 ± 1.27%

# Same assay, conditions: Figure 1B legend; HEK293, luciferase reporter
row,Substance,CRF1R activation / residual activity up to the maximal tested concentration of 100 nM
1,"Ucn1(8-40): 33-mer N-truncated Ucn1 antagonist, introduced in this work for the first time (DLTFHLLRTLLELARTQSQRERAEQNRIIFDSV; ends and bridges not checked; UniProt P55089 90-122, looked up, fragment)",< 10%
2,"[DPhe^12,Nle^21,38]-CRF(12-41) [^dFXCRF(12-41)]",did not elicit any significant receptor activation
3,"CRF(9-41): 33-mer antagonist obtained by N-terminal truncation of the first eight residues of CRF (DLTFHLLREVLEMARAEQLAQQAHSNRKLMEII; ends and bridges not checked; UniProt P06850 162-194, looked up, fragment)",< 10%

# Same assay, conditions: HEK293, luciferase reporter; agrees with literature data
row,Substance,EC50 (Figure 1B legend)
1,"Urocortin I (DNPSLSIDLTFHLLRTLLELARTQSQRERAEQNRIIFDSVGK) [Ucn1, 40-mer endogenous peptide agonist of CRF1R]",Sub-nanomolar
2,"corticotropin-releasing factor (SEEPPISLDLTFHLLREVLEMARAEQLAQQAHSNRKLMEIIGK) [CRF, 41-mer endogenous peptide agonist of CRF1R]",Sub-nanomolar

# Same assay, conditions: cAMP level via luciferase reporter, transiently transfected HEK293 cells, 3 hr stimulation at 37°C; mean ± s.e.m., at least three independent experiments, each in triplicate
row,Substance,EC50
1,SEEPPISLDLTFHLLREVLE[Nle]ARAEQLAQQAHK(ClAc)NRKL[Nle]EII-NH2 [[Lys(ClAc)^33]- ^XCRF],40 pM
2,SEEPPISLDLTFHLLRK(ClAc)VLE[Nle]ARAEQLAQQAHSNRKL[Nle]EII-NH2 [[Lys(ClAc)^17]- ^XCRF],80 pM
3,SEEPPISLDLTFHLK(ClAc)REVLE[Nle]ARAEQLAQQAHSNRKL[Nle]EII-NH2 [[Lys(ClAc)^15]- ^XCRF],80 ± 220 pM

# Target: corticotropin-releasing factor receptor type 1 (CRF1R), wild type (rat) (UniProt P35353)
# Test: not given
# Conditions: not given
Substance,"Receptor activation at 100 nM [%] (cAMP accumulation, normalized to Ucn1 or CRF)",EC50 of cAMP accumulation (CRE-luciferase reporter) in HEK293 cells transfected with CRF1R
[Lys(ClAc)^16]-^dFXCRF(12-41) (peptide),1.06%,
[Lys(ClAc)^15]-^XCRF (peptide),,80 pM
[Lys(ClAc)^17]-^dFXCRF(12-41) (peptide),0.31%,
[Lys(ClAc)^18]-^dFXCRF(12-41) (peptide),0.59%,
corticotropin-releasing factor (CRF) (from UniProt P06850 154-196) (peptide),,110 pM
[Lys(ClAc)^13]-^XCRF (peptide),,30 pM
[Lys(ClAc)^31]-^XCRF (peptide),,60 pM
[Lys(ClAc)^14]-^dFXCRF(12-41) (peptide),1.49%,
"[DPhe^12,Nle^21,38]-CRF(12-41) (peptide)",0.53%,
[Lys(ClAc)^17]-^XCRF (peptide),,80 pM
[Lys(ClAc)^18]-^XCRF (peptide),,30 pM
[Lys(ClAc)^31]-^dFXCRF(12-41) (peptide),0.52%,
[ClAc^0]-^dFXCRF(12-41) (peptide),0.62%,
[Lys(ClAc)^16]-^XCRF (peptide),,200 pM
[Lys(ClAc)^13]-^dFXCRF(12-41) (peptide),2.41%,
[Lys(ClAc)^33]-^XCRF (peptide),,40 pM
CRF(9-41) (peptide),4.03%,
Urocortin I (Ucn1) (from UniProt P55089 83-124) (peptide),,160 pM
[Lys(ClAc)^33]-^dFXCRF(12-41) (peptide),1.85%,
[Lys(ClAc)^15]-^dFXCRF(12-41) (peptide),0.39%,
Ucn1(8-40) (peptide),8.2%,
